Experimental data: US20240368285A1 (HEFEI TG IMMUNOPHARMA, published 2024)

T1: MICA on human tumor cells (A-375, A549, HCT-15, MDA-MB-231) (human, UniProt Q29983 24-383)
T1 construct: whole, on cells
T1 sequence (looked up): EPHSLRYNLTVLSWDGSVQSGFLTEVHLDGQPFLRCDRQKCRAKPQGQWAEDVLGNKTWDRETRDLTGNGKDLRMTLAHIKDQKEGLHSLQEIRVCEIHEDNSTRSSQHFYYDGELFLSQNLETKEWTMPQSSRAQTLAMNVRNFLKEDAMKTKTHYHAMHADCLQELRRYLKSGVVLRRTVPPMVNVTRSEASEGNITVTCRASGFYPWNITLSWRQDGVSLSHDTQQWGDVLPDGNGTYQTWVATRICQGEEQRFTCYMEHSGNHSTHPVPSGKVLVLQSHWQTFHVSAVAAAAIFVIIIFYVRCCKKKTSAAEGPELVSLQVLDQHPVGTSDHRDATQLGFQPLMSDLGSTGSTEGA


Key:
MICA004α3-Fc = molecular target: T2, MICA004α3-Fc (human); test: ELISA on coated MICA*004 α3-Fc (1 µg/ml), HRP anti-human Fab secondary, OD450
T2 construct: also called MICA*004-Fc; domain α3 of MICA-004 Fc fusion protein
T2 sequence (chain, as listed by the source limits assumed): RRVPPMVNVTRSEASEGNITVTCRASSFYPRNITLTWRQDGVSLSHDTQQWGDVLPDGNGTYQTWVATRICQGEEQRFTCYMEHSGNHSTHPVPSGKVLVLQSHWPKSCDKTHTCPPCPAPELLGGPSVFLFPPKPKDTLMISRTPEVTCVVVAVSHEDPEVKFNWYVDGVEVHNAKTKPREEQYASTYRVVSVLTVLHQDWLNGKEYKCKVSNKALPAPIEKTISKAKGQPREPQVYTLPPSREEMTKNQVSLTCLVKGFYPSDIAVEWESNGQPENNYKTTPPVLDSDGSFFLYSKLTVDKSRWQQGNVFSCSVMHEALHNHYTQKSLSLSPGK

MICB005α3-Fc = molecular target: T3, MICB005α3-Fc; test: ELISA on coated MICB*005 α3-Fc (1 µg/ml), HRP anti-human Fab secondary, OD450
T3 construct: also called MICB*005-Fc; domain α3 of MICB-005 Fc fusion protein
T3 sequence (chain, as listed by the source limits assumed): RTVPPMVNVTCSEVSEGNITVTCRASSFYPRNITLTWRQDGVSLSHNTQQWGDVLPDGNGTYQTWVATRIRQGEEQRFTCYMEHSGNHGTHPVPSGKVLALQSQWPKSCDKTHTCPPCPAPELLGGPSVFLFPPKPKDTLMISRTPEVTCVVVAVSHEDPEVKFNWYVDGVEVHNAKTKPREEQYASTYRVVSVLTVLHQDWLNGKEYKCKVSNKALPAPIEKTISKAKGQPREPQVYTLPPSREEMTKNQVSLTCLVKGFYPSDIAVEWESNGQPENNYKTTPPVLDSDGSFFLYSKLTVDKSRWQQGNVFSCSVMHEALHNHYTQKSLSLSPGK

[1] = molecular target: T1, MICA on human tumor cells (A-375, A549, …); test: flow cytometry on A-549 cells, Alexa-647 goat anti-human secondary, % binding ratio
Experimental: (§1) (2) Tumor cells were diluted to a density of 2×10⁶/mL with PBS and added into a 1.5 ml EP tube in a volume of 100 l/tube. 10 l/tube of goat serum was added into the EP tube; and blocking was conducted at 4° C. for 30 min. […] The tube was incubated at 4° C. for 30 min. 1 mL of PBS was added into the EP tube, and centrifugation was conducted 4° C. at a rate of 3,500 rpm for 5 min. The supernatant was removed. Then, the EP tube was washed once with the PBS, and the supernatant was removed after centrifugation. The cells were resuspended with PBS in a volume of 100 l/tube. An Alexa-647 labeled goat anti-human secondary antibody (purchased from Jackson lab) was added into the tube in a volume of 1 l/tube, and the tube was incubated in the dark at 4° C. for 30 min. The tube was washed twice with PBS, and the supernatant was removed after centrifugation. The cells were resuspended with the PBS in a volume of 200 l/tube, and detection was conducted by a flow cytometer. The results are as shown in FIG. 17A and FIG. 17B, FIG. 18A and FIG. 18B, FIG. 19A and FIG. 19B, and FIG. 20A and FIG. 20B.

[2] = molecular target: T1, MICA on human tumor cells (A-375, A549, …); test: flow cytometry on HCT-15 cells, Alexa-647 goat anti-human secondary, % binding ratio
Experimental: as §1

MICA008α3-Fc = molecular target: T4, MICA008α3-Fc (human); test: ELISA on coated MICA*008 α3-Fc (1 µg/ml), HRP anti-human Fab secondary, OD450
T4 construct: also called MICA*008-Fc; domain α3 of MICA-008 Fc fusion protein
T4 sequence (chain, as listed by the source limits assumed): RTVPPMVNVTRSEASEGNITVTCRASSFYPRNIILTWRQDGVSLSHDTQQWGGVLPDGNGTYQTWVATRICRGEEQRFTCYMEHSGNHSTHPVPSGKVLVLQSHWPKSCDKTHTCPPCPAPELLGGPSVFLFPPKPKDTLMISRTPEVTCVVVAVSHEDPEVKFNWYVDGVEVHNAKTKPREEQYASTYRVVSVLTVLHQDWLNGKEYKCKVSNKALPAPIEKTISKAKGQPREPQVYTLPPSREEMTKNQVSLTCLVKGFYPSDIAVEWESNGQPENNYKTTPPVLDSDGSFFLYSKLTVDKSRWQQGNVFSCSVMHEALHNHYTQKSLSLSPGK

[3] = molecular target: T1, MICA on human tumor cells (A-375, A549, …); test: flow cytometry on MDA-MB-231 cells, Alexa-647 goat anti-human secondary, % binding ratio
Experimental: as §1

MICB001α3-Fc = molecular target: T5, MICB001α3-Fc; test: ELISA on coated MICB*001 α3-Fc (1 µg/ml), HRP anti-human Fab secondary, OD450
T5 construct: also called MICB*001-Fc; domain α3 of MICB-001 Fc fusion protein
T5 sequence (chain, as listed by the source limits assumed): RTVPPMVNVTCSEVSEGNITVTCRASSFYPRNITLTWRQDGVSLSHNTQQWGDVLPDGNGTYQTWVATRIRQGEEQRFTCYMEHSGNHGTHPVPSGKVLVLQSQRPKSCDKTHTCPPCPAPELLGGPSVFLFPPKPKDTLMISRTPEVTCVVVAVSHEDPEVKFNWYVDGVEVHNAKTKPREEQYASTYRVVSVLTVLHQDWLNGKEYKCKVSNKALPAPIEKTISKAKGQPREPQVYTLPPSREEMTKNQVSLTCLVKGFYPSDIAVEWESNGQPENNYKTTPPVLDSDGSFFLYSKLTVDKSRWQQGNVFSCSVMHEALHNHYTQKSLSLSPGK

MICA005α3-Fc = molecular target: T6, MICA005α3-Fc (human); test: ELISA on coated MICA*005 α3-Fc (1 µg/ml), HRP anti-human Fab secondary, OD450
T6 construct: also called MICA*005-Fc; domain α3 of MICA-005 Fc fusion protein
T6 sequence (chain, as listed by the source limits assumed): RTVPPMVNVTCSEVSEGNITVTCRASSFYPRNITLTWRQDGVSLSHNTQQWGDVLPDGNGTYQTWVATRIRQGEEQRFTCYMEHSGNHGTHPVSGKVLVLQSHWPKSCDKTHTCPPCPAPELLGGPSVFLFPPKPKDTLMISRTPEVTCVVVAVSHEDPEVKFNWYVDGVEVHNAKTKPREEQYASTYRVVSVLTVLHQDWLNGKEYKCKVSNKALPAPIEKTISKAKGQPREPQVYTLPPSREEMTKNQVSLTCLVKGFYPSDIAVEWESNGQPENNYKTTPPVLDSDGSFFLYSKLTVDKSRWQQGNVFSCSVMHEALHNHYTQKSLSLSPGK

[4] = molecular target: T1, MICA on human tumor cells (A-375, A549, …); test: flow cytometry competition on HCT-15 cells; competitor: Biotin-h5A1002, detected with Alexa-647 streptavidin; % binding ratio of Biotin-h5A1002
Experimental: HCT-15 cells were diluted to a density of 2×10⁶/mL with PBS and added into a 1.5 ml EP tube in a volume of 100 l/tube. 10 l/tube of goat serum was added into the EP tube, and blocking was conducted at 4° C. for 30 min. […] The tube was incubated at 4° C. for 30 min. A biotin-labeled affinity maturation antibody Biotin-h5A1002 (having a heavy chain sequence as set forth in SEQ ID NO: 13 and a light chain sequence as set forth in SEQ ID NO: 14) was added. The tube was incubated at 4° C. for 30 min. 1 mL of PBS was added into the EP tube, and centrifugation was conducted 4° C. at a rate of 3,500 rpm for 5 min. The supernatant was removed. The EP tube was washed once with the PBS, and the supernatant was removed after centrifugation. The cells were resuspended with PBS in a volume of 100 l/tube. An Alexa-647 labeled Streptavidin secondary antibody (purchased from Biolegend) was added into the tube in a volume of 1 l/tube, and the tube was incubated in the dark at 4° C. for 30 min. The tube was washed twice with PBS, and the supernatant was removed after centrifugation. The cells were resuspended with the PBS in a volume of 200 μl/tube, and detection was conducted by a flow cytometer.

[5] = molecular target: T1, MICA on human tumor cells (A-375, A549, …); test: flow cytometry on A-375 cells, Alexa-647 goat anti-human secondary, % binding ratio
Experimental: as §1

MICA002α3-Fc = molecular target: T7, MICA002α3-Fc (human); test: ELISA on coated MICA*002 α3-Fc (1 µg/ml), HRP anti-human Fab secondary, OD450
T7 construct: Produced in the Applicant's laboratory; also called MICA*002-Fc; domain α3 of MICA-002 Fc fusion protein
T7 sequence (chain, as listed by the source limits assumed): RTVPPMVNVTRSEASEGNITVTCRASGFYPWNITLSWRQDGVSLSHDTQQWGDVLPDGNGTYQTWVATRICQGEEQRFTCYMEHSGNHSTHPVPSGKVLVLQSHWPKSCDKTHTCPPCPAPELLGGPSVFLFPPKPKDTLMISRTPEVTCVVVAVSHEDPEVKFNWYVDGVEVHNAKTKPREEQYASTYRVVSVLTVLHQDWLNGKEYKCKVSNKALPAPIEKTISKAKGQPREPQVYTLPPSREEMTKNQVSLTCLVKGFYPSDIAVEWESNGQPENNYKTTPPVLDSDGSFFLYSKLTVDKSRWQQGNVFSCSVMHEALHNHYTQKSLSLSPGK

| Binder | EC50 (read off the curve) (MICA004α3-Fc) [µg/mL] | EC50 (read off the curve) (MICB005α3-Fc) [µg/mL] | EC50 (read off the curve) [1] [µg/mL] | EC50 (read off the curve) [2] [µg/mL] | EC50 (read off the curve) (MICA008α3-Fc) [µg/mL] | EC50 (read off the curve) [3] [µg/mL] | EC50 (read off the curve) (MICB001α3-Fc) [µg/mL] | EC50 (read off the curve) (MICA005α3-Fc) [µg/mL] | IC50 (read off the curve) [4] [µg/mL] | EC50 (read off the curve) [5] [µg/mL] | EC50 (read off the curve) (MICA002α3-Fc) [µg/mL] |
| --- | --- | --- | --- | --- | --- | --- | --- | --- | --- | --- | --- |
| antibody 1D5V11 (Genentech) (antibody, human IgG1, kappa, V domains shown, also called homogeneous antibody 1D5V11) VH: EIQLVQSGAEVKKPGASVKVSCKASGYAFTSQNIYWVRQAPGQGLEWIGYIEPYNVVPMYNPKFKGRATLTVDKSTSTAYLELSSLRSEDTAVYYCARSGSSNFDYWGQGTLVTVSS VL: DIQLTQSPSSLSASVGDRVTITCSASSSISSHYLHWYQQKPGKSPKLLIYRTSNLASGVPSRFSGSGSGTDYTLTISSLQPEDFATYYCQQGSSLPLTFGQGTKVEIKR | ~0.04 | ~0.04 | ~0.4 | ~0.1 | ~0.07 | ~0.3 | ~0.03 | ~0.09 | ~5 | ~0.3 | ~0.05 |
| antibody CLN-619 (Cullinan) (antibody, human IgG1, kappa, V domains shown, hIgG1 subtype) VH: QVQLVESGGGLVKPGGSLRLSCAASGFTFSNYAMSWIRQAPGKGLEWVSYISPGGDYIYYADSVKGRFTISRDNAKNSLYLQMNSLRAEDTAVYYCTTDRRHYGSYAMDYWGQGTLVTVSS VL: DIVMTQSPLSLPVTPGEPASISCRSSKSLLHSNLNTYLYWFLQKPGQSPQILIYRMSNLASGVPDRFSGSGSGTAFTLKISRVEAEDVGVYYCMQHLEYPFTFGPGTKLEIKR | ~0.04 | ~0.04 | ~0.7 | ~0.3 | ~0.1 | ~0.7 | ~0.05 | ~0.2 | ~4 | ~0.7 | ~0.07 |
